Laboratory results from FireProtDB (doi:10.1016/0022-2836(74)90188-0).

Settings: Bos taurus, Thermal, DSC, glycine 0.04 M, reversible: yes(>90%)

Sequence of Cytochrome c wild type, P62894 (P62894 whole entry): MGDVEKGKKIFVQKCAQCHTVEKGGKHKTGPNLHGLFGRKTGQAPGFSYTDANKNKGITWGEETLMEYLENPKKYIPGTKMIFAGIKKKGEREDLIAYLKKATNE

Cytochrome c wild type, P62894
Tm (pH 2.81): 52.5 °C | unfolding enthalpy (calorimetric) (pH 2.81): 60 kcal/mol | Tm (pH 2.92): 54 °C | heat capacity change of unfolding (pH 2.92): 1.43 kcal/mol/K | unfolding enthalpy (calorimetric) (pH 2.92): 65 kcal/mol | Tm (pH 3.05): 59 °C | heat capacity change of unfolding (pH 3.05): 1.48 kcal/mol/K | unfolding enthalpy (calorimetric) (pH 3.05): 70.3 kcal/mol | Tm (pH 3.12): 61 °C | heat capacity change of unfolding (pH 3.12): 1.53 kcal/mol/K | unfolding enthalpy (calorimetric) (pH 3.12): 74.3 kcal/mol | Tm (pH 3.18): 62 °C | heat capacity change of unfolding (pH 3.18): 1.36 kcal/mol/K | unfolding enthalpy (calorimetric) (pH 3.18): 77 kcal/mol | Tm (pH 3.4): 66 °C | heat capacity change of unfolding (pH 3.4): 1.48 kcal/mol/K | unfolding enthalpy (calorimetric) (pH 3.4): 84.6 kcal/mol | Tm (pH 3.75): 70 °C | heat capacity change of unfolding (pH 3.75): 1.7 kcal/mol/K | unfolding enthalpy (calorimetric) (pH 3.75): 93.5 kcal/mol | Tm (pH 3.94): 72 °C | heat capacity change of unfolding (pH 3.94): 1.65 kcal/mol/K | unfolding enthalpy (calorimetric) (pH 3.94): 96.3 kcal/mol | Tm (pH 4.52): 77 °C | heat capacity change of unfolding (pH 4.52): 1.48 kcal/mol/K | unfolding enthalpy (calorimetric) (pH 4.52): 103 kcal/mol | Tm (pH 4.83): 78 °C | heat capacity change of unfolding (pH 4.83): 1.53 kcal/mol/K | unfolding enthalpy (calorimetric) (pH 4.83): 107 kcal/mol
